Targets include MYCN 1-154 (UniProt P04198 1-154); MYCN FL (UniProt P04198 1-464); MYCN 1-154 dMBII (UniProt P04198 1-154, del111-134).
Experiment in all cases: fluorescence anisotropy
For orientation: In fluorescence polarisation assays a small probe gives low polarisation when free and higher when bound to something large.

B1: 62 RNA (ssRNA)
RNA: UGGGCCUGGAAUAGUGGGGGCCCAGGGGAAGCUGCGAUGUGCUUCUGAGUGUUUGGAACGAG
As to B1, in the data set with MYCN 1-154, the binding result was “binds”.

B2: UGlow RNA (ssRNA)
RNA: ACAGUCCAGUCGCAGCAGACUCCCUCACAGCACCCACCUCUCCCACAAUCGGAUCCCAGG
In the data set with MYCN FL, B2 returned a Kd of 511 nM.

B3: UGhigh RNA (ssRNA)
RNA: UGCUGGGAUGGUCAUGGUGGGUGACCCUGGGAUGGCCGCGGUGGGUGACCCUGGAAUGGU
Take B3: in the data set with MYCN 1-154 dMBII, the binding result is “binds”. In the data set with MYCN FL, this molecule displayed a Kd of 175 nM.

Broadly, the Kd is the free concentration of one partner at which half of the binding sites on the other are occupied at equilibrium, for simple one-to-one binding. A high value points to lower affinity.

For the origin of these results see doi:10.1101/2023.08.16.553474.
